Measured values from patent publication US20030229922A1, “Materials and methods for the modification of plant cell wall polysaccharides” (GENESIS RESEARCH AND DEVELOPMENT CORPORATION LTD., priority 1998, published 2003).

Assays:
[1] = system: T1, O=c1ccn([C@@H]2O[C@H](COP(=O)(O)OP(=O)(O)O)[C@@H](O)[C@H]2O)c(=O)[nH]1; assay: SUS (sucrose synthase) enzyme assay (purified recombinant protein); assay type: biochemical, Eucalyptus grandis; conditions: other: E. grandis SUS; SEM 0.003
T1 construct: wild type
Excerpt: (§1) Sense constructs containing sequences including the coding regions for UGP (SEQ ID NO: 79) and SUS (SEQ ID NO: 105) from Eucalyptus grandis, and UGP (SEQ ID NO: 80) from Pinus radiata were inserted into the expression vector pET16b (Clontech Laboratories Inc, Palo Alto, Calif.). The resulting constructs were transformed into E. coli XL1-Blue (Stratagene) and induced to produce recombinant protein by the addition of IPTG. Purified proteins were obtained using Ni^2+ column chromatography (Janknecht et al., Proc. Natl. Acad. Sci. USA, 88:8972-8976, 1991).
(§2) Enzyme assays for SUS (sucrose synthase) were performed using the methods described by Sebkova et al. Plant Physiol., 108:75-83, 1995. […] The KM^Sucrose of E. grandis is compared with the data reported by Delmer, J. Biol. Chem. 247:3822-3828, 1972 and Nakai et al., Biosci. Biotech. Biochem. 61:1500-1503, 1997.

[2] = system: T2, OC[C@H]1O[C@@](CO)(O[C@H]2O[C@H](CO)[C@@H](O)[C@H](O)[C@H]2O)[C@@H](O)[C@@H]1O; assay: as above; assay type: biochemical, Eucalyptus grandis; conditions: other: E. grandis SUS; SEM 0.371
T2 construct: wild type
Excerpt: as §1, §2

Eucalyptus grandis SUS (sucrose synthase), SEQ ID NO: 105 (DNA; protein SEQ ID NO: 106) (Eucalyptus grandis), sequence (chain, as listed by the source): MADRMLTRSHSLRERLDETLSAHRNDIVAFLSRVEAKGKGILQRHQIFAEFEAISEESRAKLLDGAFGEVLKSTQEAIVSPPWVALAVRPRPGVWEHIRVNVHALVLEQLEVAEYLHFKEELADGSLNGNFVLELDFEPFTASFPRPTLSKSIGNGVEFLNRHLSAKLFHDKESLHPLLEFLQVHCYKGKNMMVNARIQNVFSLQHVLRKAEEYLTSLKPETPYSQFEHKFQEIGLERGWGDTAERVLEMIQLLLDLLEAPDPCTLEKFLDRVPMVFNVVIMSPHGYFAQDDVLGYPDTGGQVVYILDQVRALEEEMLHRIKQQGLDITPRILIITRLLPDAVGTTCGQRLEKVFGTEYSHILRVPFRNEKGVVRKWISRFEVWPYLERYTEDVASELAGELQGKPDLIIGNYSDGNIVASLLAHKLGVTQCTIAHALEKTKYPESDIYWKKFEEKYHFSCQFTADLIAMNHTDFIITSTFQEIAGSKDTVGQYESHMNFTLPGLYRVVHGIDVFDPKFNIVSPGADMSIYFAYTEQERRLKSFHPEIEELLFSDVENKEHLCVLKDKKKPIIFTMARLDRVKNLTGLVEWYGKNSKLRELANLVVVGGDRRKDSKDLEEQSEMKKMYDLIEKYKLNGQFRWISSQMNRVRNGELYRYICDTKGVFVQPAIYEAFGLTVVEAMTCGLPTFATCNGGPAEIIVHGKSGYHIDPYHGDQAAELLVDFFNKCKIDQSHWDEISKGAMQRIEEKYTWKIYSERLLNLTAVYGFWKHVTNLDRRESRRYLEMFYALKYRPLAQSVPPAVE

Work on “Eucalyptus grandis SUS (sucrose synthase), SEQ ID NO: 105 (DNA; protein SEQ ID NO: 106) (Eucalyptus grandis)” yielded a Km [1] of 28 µM and a Km [2] of 1650 µM.
